Consider five molecules from patent publication US6005086, “Farnesoid activated receptor polypeptides, and nucleic acid encoding the same” (The Salk Institute for Biological Studies).

Data set [1] concerns the target T1, FAR-RXRalpha heterodimer (Rattus norvegicus (FAR) / Homo sapiens …, UniProt Q62735;P19793 Q62735:1-469,P19793:1-462). Description: EMSA; half-site substitutions abolish binding. To be noted: tags: rabbit reticulocyte lysate TNT, Promega; label: 32P (Klenow). As for the experimental part:
(§1) It was next sought to determine the DNA binding properties of the FAR-RXRα complex. Because FAR and EcR share 100% sequence identity in the DNA recognition helix (P-box, Cys^141-Lys^145), it was examined whether the FAR-RXRα complex could recognize the hsp27 […] (EcRE; Yao et al., *Cell* 71:63–72 (1992)). Electrophoretic mobility shift analysis was performed using [^32P]-labeled DNA and in vitro translated FAR and RXRα. Proteins used in electrophoretic mobility shift assays were prepared by translation in a rabbit reticulocyte lysate system (TNT, Promega). Proteins (1 µl) were incubated for 20 minutes at room temperature with 100,000 cpm of Klenow-labeled probes in 10 mM Tris pH 8, 100 mM KCl, 6% glycerol, 0.05% NP-40, 1 mM DTT, 100 ng/µl poly dI dC and then electrophoresed through a 5% polyacrylamide gel in 0.5×TBE. The gel was autoradiographed for 1.5 hours with an intensifying screen.
In general terms: Mobility shift assays separate free from complexed probe on a gel.

The target in a further data set is RXRalpha (UniProt P19793 P19793:1-462). Description: EMSA; RXRalpha alone, no high affinity binding. The settings on record: tags: rabbit reticulocyte lysate TNT, Promega; GenBank X52773 cited for human RXRalpha; label: 32P (Klenow). As for the experimental part:
as §1

Data set [2] has as its target T1, FAR-RXRalpha heterodimer. Put plainly: EMSA; cooperative binding. To be noted: tags: rabbit reticulocyte lysate TNT, Promega; label: 32P (Klenow). As for the experimental part: as §1
The target of data set [3] is T1, FAR-RXRalpha heterodimer. Put plainly: EMSA; mutated element not recognized. To be noted: tags: rabbit reticulocyte lysate TNT, Promega; label: 32P (Klenow). As for the experimental part:
as §1

In data set [4] the target is T1, FAR-RXRalpha heterodimer. Description: cell_activity; 50 uM JH III; 76-fold with 100 nM LG69, 212-fold with both; parental MTV reporter lacking EcREs not activated by JH III. The settings on record: tags: CMV expression vectors in CV-1 cells. As for the experimental part: Thus, with reference to FIG. 5A, CV-1 cells were transiently transfected with hsp27-EcRE×5 MTV-luciferase alone (−) or with expression vectors for rat FAR and/or human RXRα. Reporter activity was assayed after treating cells with or without 50 µM JH III.

T1 sequence (Q62735 whole entry, chain 1 of 2): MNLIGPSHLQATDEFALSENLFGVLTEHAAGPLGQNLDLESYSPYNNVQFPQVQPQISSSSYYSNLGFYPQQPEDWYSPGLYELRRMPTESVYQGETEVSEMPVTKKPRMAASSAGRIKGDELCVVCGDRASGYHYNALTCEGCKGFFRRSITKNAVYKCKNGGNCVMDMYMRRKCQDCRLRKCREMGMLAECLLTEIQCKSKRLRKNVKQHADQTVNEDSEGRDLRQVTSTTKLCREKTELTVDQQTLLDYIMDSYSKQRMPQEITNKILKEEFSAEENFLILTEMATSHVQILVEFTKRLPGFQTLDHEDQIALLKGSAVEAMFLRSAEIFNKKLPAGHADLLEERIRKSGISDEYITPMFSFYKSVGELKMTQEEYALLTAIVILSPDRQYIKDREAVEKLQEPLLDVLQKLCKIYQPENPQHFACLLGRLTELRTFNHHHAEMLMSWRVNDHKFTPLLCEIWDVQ
T1 sequence (P19793 whole entry, chain 2 of 2): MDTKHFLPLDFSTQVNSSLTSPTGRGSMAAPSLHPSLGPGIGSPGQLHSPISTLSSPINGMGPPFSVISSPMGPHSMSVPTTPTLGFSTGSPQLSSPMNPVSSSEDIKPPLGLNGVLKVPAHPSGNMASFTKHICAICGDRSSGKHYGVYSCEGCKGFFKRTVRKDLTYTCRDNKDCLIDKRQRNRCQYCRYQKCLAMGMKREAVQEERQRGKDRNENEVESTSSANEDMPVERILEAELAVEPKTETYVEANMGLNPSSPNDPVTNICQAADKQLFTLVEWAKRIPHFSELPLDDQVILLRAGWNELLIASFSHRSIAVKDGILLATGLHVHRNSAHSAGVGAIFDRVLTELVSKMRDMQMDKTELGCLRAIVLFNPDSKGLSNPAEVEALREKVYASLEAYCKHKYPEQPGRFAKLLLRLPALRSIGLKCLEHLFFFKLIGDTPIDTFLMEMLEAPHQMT
Sequence of RXRalpha (P19793 whole entry, one chain of several): as the sequence (P19793 whole entry, chain 2 of 2) above

B1: IR1m (dsDNA)
DNA 1: AGAACAATGTTCT
DNA 2: AGAACATTGTTCT
Regarding B1, the binding result with FAR-RXRalpha heterodimer [1] is “no binding”.

B2: hsp27-EcRE (dsDNA)
DNA 1: GGTTCAATGCACT
DNA 2: AGTGCATTGAACC
In the case of B2, the binding result with RXRalpha is given as “no binding”.

B3: idealized IR1 (dsDNA)
DNA 1: AGGTCAATGACCT
DNA 2: AGGTCATTGACCT
With B3, the binding result with FAR-RXRalpha heterodimer [2] is reported as “binds”.

B4: EcREm (mutated hsp27-EcRE) (dsDNA)
DNA 1: CGTTCAATGCACA
DNA 2: TGTGCATTGAACG
Regarding B4, the binding result with FAR-RXRalpha heterodimer [3] is listed as “no binding”.

B5: hsp27-EcRE x5 MTV-luciferase reporter (dsDNA)
DNA 1: GGTTCAATGCACT
DNA 2: AGTGCATTGAACC
With B5, in the data set with FAR-RXRalpha heterodimer [4], the activity stood at 17 fold activation.
